Laboratory results reported in patent publication US12310324B2, “Compositions and methods for minimizing nornicotine synthesis in tobacco” (North Carolina State University, priority 2010, dated 2025).
Where a chain is given by its changes, count along the chain named. In names and notes the source's numbering stands. Marks after values point to notes of the source that are not given here.

Tests used:
CN1CCC[C@H]1c1cccnc1 = assay: Nicotine demethylase assay, yeast microsomal membrane preparations incubated with [^14C]-nicotine, products resolved by thin layer chromatography; type: biochemical, Nicotiana tabacum; conditions: other: substrate saturation curve across a wide range of [^14C]-nicotine concentrations; microsomes from yeast strain W(R) expressing CYP82E10 cDNA
Description: (§1) To determine whether CYP82E10 functions as a nicotine demethylase gene, its cDNA was cloned into the yeast expression vector pYeDP60 and transformed into yeast strain W(R). Strain W(R) is a yeast cell line that was engineered to overexpress the yeast NADPH-dependent P450 reductase, an enzyme that serves as the direct electron donor to P450s; this system greatly enhances the detection of foreign P450 enzyme activities that are expressed in yeast (Pompon et al., 1995). Nicotine demethylase assays were conducted by incubating yeast microsomal membrane preparations with [^14C]-nicotine, and resolving the products by thin layer chromatography as described in Siminszky et al. (2005).

[1] = system: CYP82E10 nicotine demethylase; assay: Nicotine demethylase assay, yeast microsomal membranes with [14C]-nicotine, CYP82E10 and variants; type: biochemical, tobacco; design: Activity of Mutant Enzyme: concentration or dose not given beside the values; conditions: for Activity of Mutant Enzyme: relative to the wild type enzyme when expressed in yeast; for nicotine demethylase (enzyme) activity, result in words: [14C]-nicotine
Description: as §1
The nucleotide and amino acid residues mutated in these plants are also highlighted in FIG. 1. Although no truncation mutations were observed among these individuals, in several cases, mutations were identified that altered an amino acid residue within a highly conserved region of the enzyme. To determine the effects of a particular mutation on CYP82E10 enzyme activity, site-directed mutagenesis was used to introduce the specific mutations corresponding to seven of the nine mutations shown in Table 2 into the CYP82E10 cDNA within the pYeDP60 yeast expression vector. Microsomal preparations from yeast strains expressing each of the seven CYP82E10 variants were assayed in vitro for nicotine demethylase activity using both non-saturating (2.45 μM) and saturating (50 μM) concentrations of [^14C]-nicotine.

[2] = system: CYP82E4 nicotine demethylase
[3] = system: CYP82E4v2 nicotine demethylase; type: biochemical, tobacco; conditions: counts per minute of [14C]-nornicotine/mg microsomal protein; ± SD of two technical replications
Description: as §1
The thin layer chromatographic data for the in vitro yeast expression assays corresponding to the plant 1041 mutation are shown in FIG. 3. This particular mutation was selected for more extensive investigation. To provide additional confirmation that the Pro to Ser substitution at amino acid position 381 that defines the plant 1041 mutation is incompatible with nicotine demethylation function, this same mutation was introduced into a CYP82E4v2 cDNA that had been similarly cloned into the pYeDP60 vector. […] Whether introduced into the CYP82E10 or CYP82E4v2 enzymes, a Ser substitution for Pro at position 381 leads to the complete ablation of nicotine demethylase activity in this assay.

[4] = system: CYP82E5 nicotine demethylase; assay: Nicotine demethylase activity of CYP82E5 variants (method not described); type: biochemical, tobacco

In the case of “Nicotiana tabacum CYP82E10 nicotine demethylase, wild type, SEQ ID NO:2 (Nicotiana tabacum)”, the Km (CN1CCC[C@H]1c1cccnc1) is reported as 3.9 µM.

B1: Plant 693: CYP82E10 mutant enzyme R417H (mutation G1250A) from plant 693 (protein, listed as Nicotiana tabacum)
chain: MVSPVEAIVGLVTLTLLFYFIRTKKSQKPSKPLPPKIPGGWPVIGHLFYFDDDSDDRPLARKLGDLADKYGPVFTFRLGLPLVLVVSSYEAIKDCFSTNDAIFSNRPAFLYGEYLGYNNAMLFLTKYGPYWRKNRKLVIQEVLCASRLEKLKHVRFGEIQTSIKNLYTRIDGNSSTINLTDWLEELNFGLIVKMIAGKNYESGKGDEQVERFRKAFKDFIILSMEFVLWDAFPIPLFKWVDFQGHVKAMKRTFKDIDSVFQNWLEEHVKKKEKMEVNAEGNEQDFIDVVLSKMSNEYLDEGYSRDTVIKATVFSLVLDAADTVALHMNWGMALLINNQHALKKAQEEIDKKVGKDRWVEESDIKDLVYLQTIVKEVLRLYPPGPLLVPHENVEDCVVSGYHIPKGTRLFANVMKLQHDPKLWSNPDKFDPERFFAADIDFRGQHYEFIPFGSGRRSCPGMTYAMQVEHLTIAHLIQGFNYKTPNDEPLDMKEGAGLTIRKVNPIEVVITPRLTPELY
modifications: CYP82E10 R417H Variant
B1 was tested, and the “Activity of Mutant Enzyme” value [1] was 100% and the “nicotine demethylase (enzyme) activity, result in words” value (shortened to “nicotine demethylase (enzyme) activity”) ([1]; yeast microsomes) was “did not alter enzyme activity”.

B2: Plant 2476: CYP82E10 mutant enzyme G79S (mutation G235A) from EMS treated DH98-325-6 plant 2476 (protein, listed as Nicotiana tabacum)
chain: B1 chain with G79S, H417R
modifications: CYP82E10 G79S Variant
With B2 the “loss of nicotine demethylase activity from mutation (knocked out)” value [1] was 100%, the “Activity of Mutant Enzyme” value [1] was “Not detected” and the “nicotine demethylase (enzyme) activity” value ([1]; yeast microsomes) was “complete enzyme inactivation”.

B3: Plant 1035: CYP82E10 mutant enzyme A344T (mutation G1030A) from plant 1035 (protein, listed as Nicotiana tabacum)
chain: B1 chain with A344T, H417R
modifications: CYP82E10 A344T Variant
With B3 the “Activity of Mutant Enzyme” value [1] was 100% and the “nicotine demethylase (enzyme) activity” value ([1]; yeast microsomes) was “did not alter enzyme activity”.

B4: Plant 1512: CYP82E10 mutant enzyme P107S (mutation C319T) from EMS treated DH98-325-6 plant 1512 (protein, listed as Nicotiana tabacum)
chain: B1 chain with P107S, H417R
modifications: CYP82E10 P107S Variant
With B4 the “loss of nicotine demethylase activity from mutation (knocked out)” value [1] was 100%, the “Activity of Mutant Enzyme” value [1] was “Not detected” and the “nicotine demethylase (enzyme) activity” value ([1]; yeast microsomes) was “complete enzyme inactivation”.

B5: Plant 1442: CYP82E10 mutant enzyme P419S (mutation C1255T) from plant 1442 (protein, listed as Nicotiana tabacum)
chain: B1 chain with H417R, P419S
modifications: CYP82E10 P419S Variant
B5 was tested, and the “nicotine demethylase activity relative to the wild-type CYP82E10 polypeptide” value [1] was “about 25%”, the “Activity of Mutant Enzyme” value [1] was 25% and the “reduction in activity compared to the wild type CYP82E10 enzyme” value ([1]; yeast microsomes, 2.45 μM and 50 μM [14C]-nicotine) was 75%.

B6: Plant 817: CYP82E10 mutant enzyme A410T (mutation G1228A) from plant 817 (protein, listed as Nicotiana tabacum)
chain: B1 chain with A410T, H417R
modifications: CYP82E10 A410T
For B6, the “Activity of Mutant Enzyme” value [1] was 100% and the “nicotine demethylase (enzyme) activity” value ([1]; yeast microsomes) was “did not alter enzyme activity”.

B7: CYP82E4 W329Stop: CYP82E4 variant with stop codon for tryptophan at position 329 (protein, listed as Nicotiana tabacum)
chain: MLSPIEAIVGLVTFTFLFFFLWTKKSQKPSKPLPPKIPGGWPVIGHLFHFNDDGDDRPLARKLGDLADKYGPVFTFRLGLPLVLVVSSYEAVKDCFSTNDAIFSNRPAFLYGDYLGYNNAMLFLANYGPYWRKNRKLVIQEVLSASRLEKFKHVRFARIQASIKNLYTRIDGNSSTINLTDWLEELNFGLIVKMIAGKNYESGKGDEQVERFKKAFKDFMILSMEFVLWDAFPIPLFKWVDFQGHVKAMKRTFKDIDSVFQNWLEEHINKREKMEVNAEGNEQDFIDVVLSKMSNEYLGEGYSRDTVIKATVFSLVLDAADTVALHIN
modifications: CYP82E4 W329Stop Variant
In the case of B7, the “inhibition of nicotine demethylase activity (knocked out)” value (from here on “inhibition”) [2] is reported as 100%.

B8: CYP82E4 K364N: CYP82E4 variant with asparagine for lysine at position 364 (protein, listed as Nicotiana tabacum)
chain: MLSPIEAIVGLVTFTFLFFFLWTKKSQKPSKPLPPKIPGGWPVIGHLFHFNDDGDDRPLARKLGDLADKYGPVFTFRLGLPLVLVVSSYEAVKDCFSTNDAIFSNRPAFLYGDYLGYNNAMLFLANYGPYWRKNRKLVIQEVLSASRLEKFKHVRFARIQASIKNLYTRIDGNSSTINLTDWLEELNFGLIVKMIAGKNYESGKGDEQVERFKKAFKDFMILSMEFVLWDAFPIPLFKWVDFQGHVKAMKRTFKDIDSVFQNWLEEHINKREKMEVNAEGNEQDFIDVVLSKMSNEYLGEGYSRDTVIKATVFSLVLDAADTVALHINWGMALLINNQKALTKAQEEIDTKVGKDRWVEESDINDLVYLQAIVKEVLRLYPPGPLLVPHENVEDCVVSGYHIPKGTRLFANVMKLQRDPKLWSDPDTFDPERFIATDIDFRGQYYKYIPFGSGRRSCPGMTYALQVEHLTMAHLIQGFNYRTPNDEPLDMKEGAGITIRKVNPVELIIAPRLAPELY
modifications: CYP82E4 K364N Variant
With B8 the “inhibition” value [2] was 100%.

B9: pYeDP60-CYPE4v2/1041: CYP82E4v2 enzyme possessing the 1041 mutation (Pro381Ser) (protein, listed as Nicotiana tabacum)
chain: B8 chain with N364K, P382S
modifications: CYP82E4 P382S Variant
With B9 the “CPM nornicotine at 2.45 μM [14C]-nicotine substrate” value [3] was “Not detected”, the “CPM nornicotine at 50.0 μM [14C]-nicotine substrate” value [3] was “Not detected” and the “inhibition” value [2] was 100%.

B10: CYP82E4 P458S: CYP82E4 variant with serine for proline at position 458 (protein, listed as Nicotiana tabacum)
chain: B8 chain with N364K, P458S
modifications: CYP82E4 P458S Variant
For B10, the “inhibition” value [2] was 100%.

B11: pYeDP60-CYPE4v2: wild type senescence-induced tobacco nicotine demethylase CYP82E4v2 expressed in yeast (protein, listed as Nicotiana tabacum)
chain: B8 chain with N364K, G459R
In the case of B11, the “CPM nornicotine at 2.45 μM [14C]-nicotine substrate” value [3] is reported as 1,813 ± 623^b CPM and the “CPM nornicotine at 50.0 μM [14C]-nicotine substrate” value [3] is reported as 5,383 ± 505 CPM.

B12: CYP82E5 P449L: CYP82E5 variant with leucine for proline at position 449 (protein, listed as Nicotiana tabacum)
chain: MVSPVEAIVGLVTLTLLFYFLWPKKFQIPSKPLPPKIPGGWPVIGHLFYFDDDGDDRPLARKLGDLADKYGPVFTFRLGLPLVLVVSSYEAVKDCFSTNDAIFSNRPAFLYGEYLGYSNAMLFLTKYGPYWRKNRKLVIQEVLSASRLEKLKHVRFGKIQTSIKSLYTRIDGNSSTINLTDWLEELNFGLIVKMIAGKNYESGKGDEQVERFRKAFKDFIILSMEFVLWDAFPIPLFKWVDFQGHVKAMKRTFKDIDSVFQNWLEEHVKKREKMEVNAQGNEQDFIDVVLSKMSNEYLDEGYSRDTVIKATVFSLVLDAADTVALHMNWGMALLINNQHALKKAQEEIDKKVGKERWVEESDIKDLVYLQAIVKEVLRLYPPGPLLVPHENVEDCVVSGYHIPKGTRLFANVMKLQRDPKLWSNPDKFDPERFFADDIDYRGQHYEFILFGSGRRSCPGMTYALQAEHLTIAHLIQGFNYKTPNDEPLDMKEGAGLTIRKVNPVEVTITARLAPELY
modifications: CYP82E5 P449L
In the case of B12, the “effect of mutation on nicotine demethylase activity, in words” value [4] is reported as “inhibition of its nicotine demethylase activity”.

B13: SEQ ID NO:33: CYP82E5 variant with stop codon for tryptophan at position 422 (protein, listed as Nicotiana tabacum)
chain: MVSPVEAIVGLVTLTLLFYFLWPKKFQIPSKPLPPKIPGGWPVIGHLFYFDDDGDDRPLARKLGDLADKYGPVFTFRLGLPLVLVVSSYEAVKDCFSTNDAIFSNRPAFLYGEYLGYSNAMLFLTKYGPYWRKNRKLVIQEVLSASRLEKLKHVRFGKIQTSIKSLYTRIDGNSSTINLTDWLEELNFGLIVKMIAGKNYESGKGDEQVERFRKAFKDFIILSMEFVLWDAFPIPLFKWVDFQGHVKAMKRTFKDIDSVFQNWLEEHVKKREKMEVNAQGNEQDFIDVVLSKMSNEYLDEGYSRDTVIKATVFSLVLDAADTVALHMNWGMALLINNQHALKKAQEEIDKKVGKERWVEESDIKDLVYLQAIVKEVLRLYPPGPLLVPHENVEDCVVSGYHIPKGTRLFANVMKLQRDPKL
modifications: CYP82E5 W422Stop Variant
In the case of B13, the “inhibition” value [4] is reported as 100%.
